# According to the RNAGym collection of RNA variant scans (doi:10.1073/pnas.2313332121):
# B1: TPR t1 (parent)
# chain: GACCAAUCUGCCCUCAGAGCUCGAGAACAUCUUCGGAUGCAGAGGAGGCAGGCUUCGGUGGCGCGAUAGCGCCAACGUCCUCAACCUCCAAUGCAUCCCACCACAUGAUGAUGCCUGAAGAGCCUUGGUUUUUUG
# Variants of: B1
# Test: polymerase ribozyme fitness, log enrichment relative to wild type (log ratio); higher = more active; in vitro selection for triplet polymerase activity
# Summary of the method: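 Fitness compares each genotype's enrichment to that of the wild type on a logarithmic scale, averaging replicates with inverse-variance weights. The logarithm is base 2. Enrichment came from Illumina sequencing of input and output libraries after one triplicate round of in vitro selection, which included frozen incubation at −7 °C, of PCR-built, transcribed mutant libraries of each subunit of a heterodimeric triplet polymerase ribozyme. Only genotypes with ≥10 input reads and ≥1 read per output were kept.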
row,Variant,polymerase ribozyme fitness (log ratio)
1,GACCAGUCUGCCCUCAGAGCUCGAGAAGAUCUUCGGAUGCAGAGGAGGCAGGCUUCGGUGGCGCGAUAGCGCCAACGUCCUCAACCUCCAAUGCAUCCCACCACAUGAUGAUGCGUGAAGAGCCGUGGUUUUUUG [A6G C28G C115G U125G],-3.74
2,GACCAAUCUGCCGUCAGAGCUCGAGAACAUCUUGGGAUGCAGAGGAGGCAGGCUUCGGUGGCGCGAUAGCGCCAACGUCCUCAACCUCCAAUGCAUCCCACCACAUGAUGAUGCCUGAAGAGCCUUGGUUUUUUG [C13G C34G],-5.23
3,GACCAAUCUGCCCUCAGUGCUGGAGAACAUCUUCGGAUGCAGAGGAGGCAGGCUUCGUGGGCGCGAUAGCGCCAACGUCCUCAACCGCCAAUGCAUCCCACCACAUGAUGAUGCCUGAAGAGCCUUGGUUUUUUG [A18U C22G G58U U59G U87G],-4.24
4,GACCAAUCUGCCCUCAGAGCUCGAGAACAUCUUCGGAUGCAGAGGAGCAAGGCUUUGGUGGCGCGAUAGCGCCAACGUCCUCAACCUCCAAUUCAUCCCACCACAUGAUGAUGCCUGAAGAGCCUUGGUUUUUUG [G48C C49A C56U G93U],-1.8
5,GACCAAUCUGCGCUCAGAGCUCGAGAACAUCUUCGGAUGCAGAGGAGGCAGGCUACGGUGGCGCGAUAGCGCCAACGUCCUCAACCACCAAUGCAUCCCACCACAUGAUGAUGCCUGAAGAGCCUUGGUUUUUUG [C12G U55A U87A],0.0839
6,GACCAAUCUGCCCUCAGAGCUCGAGAACAUCUUCGGAUGCAGAGGAGGCAGGCUUCGGUGGCGCGAUAGAGCCAACGUCCUCAACCUCCAAUGCAUCCUACCACAUGAUGAUGCCUGAAGAGCCUUGGUUUUUUG [C70A C99U],-5.26
7,GACCAAUCUGCCCUCAGAGCUCGAGAACAUCUUCGGAUGCAGAGUAGGCAGGCUUCGGUGGCGCGAUAGCGCCAACGUCCUCAACCUCCAAUCCAUCCCACCACAUGAUGAUGCCUGAAGAGCCUUGGUUUUUUG [G45U G93C],-0.927
8,GACCAAUCUGCCCUCAGAGCUCGAGAACAUCUUCGGCUGCAUAGGAGGCAGGCUUCGGUGGCGCGAUAGCGCCAACGUCCUCAACCUACAAUGCAUCCCACCACAUGAUGGUGCCUGAAGAGCCUUGGUUUUUUG [A37C G42U C88A A111G],-4.05
9,GACCAAUCUGCCCUCAGAGCCCGAGAACAUCUUCGGAUGCAGAGGAGGCAGGCUUCGGUGCCGCGAUAGCGCCAACGUCCUCAACCUCCAAUGCAUCCCACCACAUGAUGAUGCCUGAAGAGCCUUGGUUUUUUG [U21C G61C],-2.11
10,GACCAAUCUGCCCUCAGAUCUCGAGAACAUCUUCGGAUGCAGAGGAGGCAGGCUUCGGUGGCGCGAUAGCGCCAACGUCCUCAACCACCAAUGCAUCCCACCACAUGAUGAUGCCUGAAGAGCCUUGGUUUUUUG [G19U U87A],-3.34
11,GACCAAUCUGCCCUCAGAGCUCGAGAACAUCUUCGGAUGCAGGGGAGGCAGGCUUCGGUGGUGCGAUAGCGCUAACGUCCUCACCCUCCAAAGCAUCCCACCACAUGAUGAUGCCUGUAGAGCCUUGGUUUCUUC [A43G C62U C73U A84C U92A A118U U132C G135C],-2.69
12,GACCAAUCUGCCCUCAGAGCUCGAGAACAUCUUCGGAUGUAGAGGAGGCAGGCUUCGGUGGCGCGAUAGCGCCAACGUCCUCAACCUCCAAUGCAUCACACCACAUGAUGAUGCCUGAAGAGCCUUGGUUUUUUG [C40U C98A],-5
13,GACCAAUCUGCCCUCAGAGCUCGAGAACAUCUUCGGAUGCAGAGGAGGCAGGCUUCGGUGCCGCGAUAGCGCCAACGUCCUCAACCUCAAAUGCAUCCCACCACAUGAUGAUGCCUGAAGGGCCUUGGUUUUUUG [G61C C89A A121G],-2.4
14,GGCCAAUCUGCCCUCAGAGCUCGAGAACAUCUUCGGAUGCAGAGGACGCAGGCUUCGGUGGCGCGAUAGCGCCAACGUCCGCAACCUCCAAUGCAUCCCACCACAUGAUGAUGCCUGAAGAGCCUUGGUUUUUUG [A2G G47C U81G],-3.47
15,GACCGAUCUGCCCUCAGAGCUCGAGAACAUCUUCGGAUGCAGAGGAGUCAGGCUUCGGUGGCGCGAUAGCGCAAACGUCCUCAACCUCCAAUGCAUACCACCACAUGAUGAUGCCUGAAGAGCCUUGGUUUUUUG [A5G G48U C73A C97A],-5.81
16,GUCCAAUCUGCCCUCAGAGCUCGAGAACAUCUUCGGCUGCAGAAGAGGCAGGAUUCGGUGGCCCGAUAGCGCCAACGUCCUCAACCUCCAAUGCAUCCCACCACAUGAUGAUGCCUGAAGAGCAUUGGUUUUUUG [A2U A37C G44A C53A G63C C124A],-3.55
17,GACCAAUCUGCCCUCAGAGCUCGAGAACAUCUUCGGAUGCAGAGGAGGCAGGCUUCGGUGGCCCGAUAGCGCCAACGUCCUCAACCUCCAAUGCAUCCCACCACAUGAUGAUGCCUGAAGGGCCUUGGUAUUUUG [G63C A121G U130A],0.94
18,GACCAAUCUGCCCUCAGAGCUCGAGAACAUCUUCGGAUGCAGAGGAGGCAGGCUUCGGUGGAGCGAUAGCGCCAACGUCCUCAACCUCCAAUGCAUCCCACCACAUGAUGAUGCCUGAAGAGCCUUGGAUUUUUG [C62A U129A],-2.21
19,GACCAAUCUGCUCUCAGAGCUCGAGAACAUCUUCGGAUGCAGAGGAGGCAAGCUUCGGUGGCGCGAUAGCGCCAACGUCCUCAACCUCCAAUGCAUCCCAUCACAUGAUGAUGCCUGAAGAGCCUUGGUUUUUUG [C12U G51A C101U],-2.14
20,GACCAAUCGGCCCUCAGAGCUCGAGAAUAUCUUCGGAUGCAGAGGAGGCAGGCUUCGGUGUCGCGAUAGCGGCAACGUCCUCAACCACCAAUGCAUCCCACCACAUGAUGAUGCCUGAAGAACCUUGGUUUUUUG [U9G C28U G61U C72G U87A G122A],-1.55
21,GACCAAUUUGCCCUCAGAGCUCGAGAACAUCUACGGAUGCAGAGGAGGCAGGCUUCGGUGGCGCGAUAGCGCCAACGUCCUCAACCUCCAAUGCAUCCCACCACAUGAUGAUGCCUGAAGAGCCUUGGUUUUUUG [C8U U33A],-3.59

row,Variant,polymerase ribozyme fitness (log ratio)
1,GACCAAUCUGCCCUCAGAGCCCGAGAACAUCUUCGGAUGCAGAGGAGGCAGGCUUCGGUGGCGCGAUAGCGCCAACGCCCUCAACCUCCAAUGCACCCCACCACAUGAUGAUGACUGAAGAGCCUUGGUUUUUUG [U21C U78C U96C C114A],-1.81
2,GACCAAUCUGCCCUCAGAGCUCGAGAACAUCUUCGGAUGCAGAGGAGGCAGGCUUCGGUGGCGCGAUAGCGCCAACGUCCUCAACCUCCAAUGCAUCCCACCACAUGAUCAUGCCUGAAGCGCCUUGGUAUUUUG [G110C A121C U130A],-3.51
3,GACCAAUCUGCCCUCAGAGCUCGAGAACAUCUUCGGAUGCAGAGGAGGCAGGCUUCGGUGGCGCGAUAACGCCAACGUCCUCAACCUCCAAAGCAUCCCACCACAUGAUGAUGCCUGAAGAGCCUUGGUUUUUUG [G69A U92A],-6.38
4,GACCAAUCUGCCCUCAGAGUUCGAGAACAUCUUCGGAUGCAGAGGAGGCAGGCUUCGGUGGAGCGAUAGCGCCAACGUCCUCAACCUCCAAUGCAUCCCACCAUAUGAUGAUGCCUGAUGAGACUUGUUUUUUUG [C20U C62A C104U A119U C123A G128U],-2.83
5,GACCAAUCUGCCCUCAGAGCUCGAGAACAUCUUCGGAUGCAGAGGAGGCAGGCUUCCGUGACGCGAUAGCGCCAACGUCCUCAACCUCCAAUGCAUGCCACCACAUGAUGAUGCCUGAAGAGCCUUGGUUUUUUG [G57C G61A C97G],-4.41
6,GACCAAGCUGCCCUCAGAGCUCGAGAACAUCUUCGGAUGCAGAGGAGGCAGGCUUCGGUGGCGCGAUAGCGCCAACGUCCUCAACCUCCAAUGCGUCCCACCACAUGAUGAUGCCUGAAGAGCCUUGGUUUUUUG [U7G A95G],0.461
7,GACCAAUUUGCCCUCAGAGCUCGGGAACAUCUUCGGAUGCAGAUGAGGCAGGCUUCGGUGGCGCGAUAGCGCCAACGUCCUCAACCUCCAAUGCAUCCCACCACACGAUGAUGCCUGAAGAGCCUUGGUUUUUUG [C8U A24G G44U U106C],-1.81
8,GACCAAUCCGCCCUCAGAGCUCGAGAACAUCUUCGGAUGCAGAGGAGGCAGGCUUCGGUGGCGCGAUAGCGCCAACGUCCUCAAGCUCCAAUGCAUCCCACCACAUGAUGAUGCCUGAAGAGCCUUGGUUUUUUG [U9C C85G],-1.02
9,GACCAAUCUGCCCUCAGAGCUCGAGAACAUCUUCGGAUGCAGAGGAGGCAGGCUUCGGCGGCGCGAUAGCGCCAACGUCCUCAACCUCCACUGCAUCCCACCACAUGAUGAUGCCUGAACAGCCUUGGUUUUCUU [U59C A91C G120C U133C G135U],-0.803
10,GACCAAUCUGCCCUCAGAGCUCGAGAGCAUCUUCGGAUGCAGAGGAGGCAGGCUUCGGUGGCGCGAUAGUGCCAACGUCAUCAACCUCCAAUGCAUCCCACCACAUGAUGAUGCCUGAAGAGCCUUGGUUUUUUG [A27G C70U C80A],-4.47
11,GACCAAUCUGCCCUCAGAGAUCGAGAACAUCUUCGGAUGCAGAGGAGGCAGGCUUUGGUGGCGCGAUAGCGCCAACGUCCUCAACCUCCAAUGCAGCCCACCACAUGAUGAUGCCUGAAGAGCCUUGGUUUUUUG [C20A C56U U96G],-3.51
12,GACCAAUCUGCCCUCAGAGCUCGAGAACAUCUUCGGAUGCAGAGGAGGCAGGCUUCGGUGGCGCGAUAGCCCCAACGUCCUCAACCUCCUAUGCAUCCCACCACAUGAUGAUGCCUGAAGAAUCUUGGUUUUUUG [G71C A90U G122A C123U],-3.12
13,GACCAAUCUGCCCUCAGAGCUCGAGAACUUCUUCGGAUGCAGAGGAGGCAGGCUUCGGUGGCGCGAUAGCGUCAACGUCCUCAACCUCCAAUGCAUCCCACCAUAUGAUGAUGCCUGAAGAGCCUUGGUUUUUUG [A29U C72U C104U],-1.81
14,GACCAAUCUGCACUCAGAGCUCGAGAACAUCUUCGGAUGCAGAGGAGGCAGGCUUCGGUGGCGCGAUAUCGCCAACGUCCUCAACCUCCAAUGCAUCCCACCACAUCAUGAUGCCUCAAGAGCCUUGGUUUUUUG [C12A G69U G107C G117C],-6.81
15,GACGAAUCUGCCCUCAGAGCUCGAGAACAUCUUCGGAUGCAGAGGAGGCAGGCUUCGGUGGCGCGAUAGCGCCAACGUCCUCAACCGCCAAUGCAUCCCACCACAUGAUGAUGCCUGAAGAGCCUUGGUUUUUUG [C4G U87G],-1.54
16,GACCAAUCUGCCCUCAGAGCUCGAGAACAUCUUCGGAUGCAGAGGAGGCAGGCUUCGGUGGCGCGAUAGAGCCAACGUCCCCAACCUACAAUGCAUCCCACCACAUGAUGAUGCCUGAAUAGCCUUGGUUUUUUG [C70A U81C C88A G120U],-3.19
17,GACCAAUCUGCCCUCAGAGCUCGAGAACAUCUUCGGAUGCAGAGGAGGCAGGCUUCGGGGGCGCGAUAGUGCCAACGUCCUCAACCUCCAAUGCAUCCCAACACAUGAUGAUGCCUGAAGAGCCUUGGUUUUUUG [U59G C70U C101A],-2.5
18,GACCAAUCUGCCUUCAGAGCUCGAGAACAUCUUCGGAUGCAGAGGAGGCAGGCUUCGGUGGCGCGAUAGCGCCUACGUCCUCAACCUCCAAUCCAUCCCACCACAUGAUGAUACCUGAAGAGCCUUGGUUUUUUG [C13U A74U G93C G113A],-1.26
19,GACCAAUCUGCCCUCAGAGCUCGAGAACAUCUUCGGAUGCAGAUGAGGCAGGCUUCGGUGGCGCGAUAGUGCCAACGUCCUCAACCUCCAAUGCAACCCACCAAAUGAUGAUGCCUGAAGAGCCUUGGUUUUUUG [G44U C70U U96A C104A],-4.6
20,GACCAAUCUGCCCUCAGAGCUCGAGAACAUCUUCGGAUGCAGUGGGGGCAGGCUUCGGUGGCGCGAUAGCGCCAACGUCCUCAACCUCCAAUGCAUCCCACCACAAGAUGAUGCCUGAAGAGCCUUGGUUUUUUG [A43U A46G U106A],-2.63
21,GACCAAUCUGCCCUCUGAGCUCGAGAACAUCUUCGGAUGCAGAGGAGGCAGGCUUCGGAGGCGCGAUAGCGCCAACGUCCUCAACCUCCAAUGCAUCCCACCACAUGAUGAUGCCUGAAGAGCAUUGGUUUUUUG [A16U U59A C124A],1.46
